{"source": "paper PMC6663966", "assay_in_all_cases": "purified protein", "conditions_in_all_cases": "HEPES buffer supplemented with zinc; room temperature", "key": {"[1]": {"test_system": "CO/N=C(\\C(=O)N[C@@H]1C(=O)N2C(C(=O)[O-])=C(C[N+]3(C)CCCC3)CS[C@H]12)c1csc(N)n1"}, "[2]": {"test_system": "CCN1CCN(C(=O)N[C@@H](C(=O)N[C@@H]2C(=O)N3[C@@H]2SC(C)(C)[C@@H]3C(=O)O)c2ccccc2)C(=O)C1=O"}, "[3]": {"test_system": "C[C@H]1[C@H](NC(=O)/C(=N\\OC(C)(C)C(=O)O)c2csc(N)n2)C(=O)N1S(=O)(=O)O"}, "[4]": {"test_system": "C[C@@H](O)[C@H]1C(=O)N2C(C(=O)O)=C(S[C@@H]3CN[C@H](C(=O)N(C)C)C3)[C@H](C)[C@H]12"}, "[5]": {"test_system": "CC(C)(O/N=C(\\C(=O)N[C@@H]1C(=O)N2C(C(=O)[O-])=C(C[n+]3ccccc3)CS[C@H]12)c1csc(N)n1)C(=O)O"}, "[6]": {"test_system": "C[C@@H](O)[C@H]1C(=O)N2C(C(=O)O)=C(SCCN=CN)C[C@H]12"}, "[7]": {"test_system": "C[C@@H](O)[C@H]1C(=O)N2C(C(=O)O)=C(S[C@@H]3CN[C@H](C(=O)Nc4cccc(C(=O)O)c4)C3)[C@H](C)[C@H]12"}, "[8]": {"test_system": "CC1(C)S[C@@H]2[C@H](NC(=O)Cc3ccccc3)C(=O)N2[C@H]1C(=O)O"}, "[9]": {"test_system": "CO[C@@]1(NC(=O)Cc2cccs2)C(=O)N2C(C(=O)O)=C(COC(N)=O)CS[C@@H]21"}, "[10]": {"test_system": "CO/N=C(\\C(=O)N[C@@H]1C(=O)N2C(C(=O)O)=C(COC(C)=O)CS[C@H]12)c1csc(N)n1"}, "[11]": {"test_system": "CC(=O)OCC1=C(C(=O)O)N2C(=O)[C@@H](NC(=O)Cc3cccs3)[C@H]2SC1"}}}
{"substance": "PAN-1 (Pseudobacteriovorax antillogorgiicola)", "values": [{"measurement": "kcat", "setting": "[1]", "value": "< 0.01", "unit": "s⁻¹"}, {"measurement": "Km", "setting": "[2]", "value": 1074.2, "unit": "µM"}, {"measurement": "kcat", "setting": "[2]", "value": 73.6, "unit": "s⁻¹"}, {"measurement": "kcat/Km", "setting": "[2]", "value": 68000, "unit": "M⁻¹ s⁻¹"}, {"measurement": "kcat", "setting": "[3]", "value": "< 0.01", "unit": "s⁻¹"}, {"measurement": "Km", "setting": "[4]", "value": 386, "unit": "µM"}, {"measurement": "kcat", "setting": "[4]", "value": 22.9, "unit": "s⁻¹"}, {"measurement": "kcat/Km", "setting": "[4]", "value": 59000, "unit": "M⁻¹ s⁻¹"}, {"measurement": "Km", "setting": "[5]", "value": 144.4, "unit": "µM"}, {"measurement": "kcat", "setting": "[5]", "value": 8.1, "unit": "s⁻¹"}, {"measurement": "kcat/Km", "setting": "[5]", "value": 56000, "unit": "M⁻¹ s⁻¹"}, {"measurement": "Km", "setting": "[6]", "value": 470.5, "unit": "µM"}, {"measurement": "kcat", "setting": "[6]", "value": 43.8, "unit": "s⁻¹"}, {"measurement": "kcat/Km", "setting": "[6]", "value": 93100, "unit": "M⁻¹ s⁻¹"}, {"measurement": "Km", "setting": "[7]", "value": 368.5, "unit": "µM"}, {"measurement": "kcat", "setting": "[7]", "value": 2.9, "unit": "s⁻¹"}, {"measurement": "kcat/Km", "setting": "[7]", "value": 7800, "unit": "M⁻¹ s⁻¹"}, {"measurement": "Km", "setting": "[8]", "value": 161, "unit": "µM"}, {"measurement": "kcat", "setting": "[8]", "value": 23.6, "unit": "s⁻¹"}, {"measurement": "kcat/Km", "setting": "[8]", "value": 146000, "unit": "M⁻¹ s⁻¹"}, {"measurement": "Km", "setting": "[9]", "value": 13.3, "unit": "µM"}, {"measurement": "kcat", "setting": "[9]", "value": 1.9, "unit": "s⁻¹"}, {"measurement": "kcat/Km", "setting": "[9]", "value": 143000, "unit": "M⁻¹ s⁻¹"}, {"measurement": "Km", "setting": "[10]", "value": 245.7, "unit": "µM"}, {"measurement": "kcat", "setting": "[10]", "value": 3.9, "unit": "s⁻¹"}, {"measurement": "kcat/Km", "setting": "[10]", "value": 16000, "unit": "M⁻¹ s⁻¹"}, {"measurement": "Km", "setting": "[11]", "value": 32.2, "unit": "µM"}, {"measurement": "kcat", "setting": "[11]", "value": 6.9, "unit": "s⁻¹"}, {"measurement": "kcat/Km", "setting": "[11]", "value": 214000, "unit": "M⁻¹ s⁻¹"}]}
